{
  "source": "IntAct's records for PubMed 16488887",
  "parents": {"B1": {"name": "Prospero homeobox protein 1 (Homo sapiens), Q92786 (parent)", "chain": "MPDHDSTALLSRQTKRRRVDIGVKRTVGTASAFFAKARATFFSAMNPQGSEQDVEYSVVQHADGEKSNVLRKLLKRANSYEDAMMPFPGATIISQLLKNNMNKNGGTEPSFQASGLSSTGSEVHQEDICSNSSRDSPPECLSPFGRPTMSQFDMDRLCDEHLRAKRARVENIIRGMSHSPSVALRGNENEREMAPQSVSPRESYRENKRKQKLPQQQQQSFQQLVSARKEQKREERRQLKQQLEDMQKQLRQLQEKFYQIYDSTDSENDEDGNLSEDSMRSEILDARAQDSVGRSDNEMCELDPGQFIDRARALIREQEMAENKPKREGNNKERDHGPNSLQPEGKHLAETLKQELNTAMSQVVDTVVKVFSAKPSRQVPQVFPPLQIPQARFAVNGENHNFHTANQRLQCFGDVIIPNPLDTFGNVQMASSTDQTEALPLVVRKNSSDQSASGPAAGGHHQPLHQSPLSATTGFTTSTFRHPFPLPLMAYPFQSPLGAPSGSFSGKDRASPESLDLTRDTTSLRTKMSSHHLSHHPCSPAHPPSTAEGLSLSLIKSECGDLQDMSEISPYSGSAMQEGLSPNHLKKAKLMFFYTRYPSSNMLKTYFSDVKFNRCITSQLIKWFSNFREFYYIQMEKYARQAINDGVTSTEELSITRDCELYRALNMHYNKANDFEVPERFLEVAQITLREFFNAIIAGKDVDPSWKKAIYKVICKLDSEVPEIFKSPNCLQELLHE", "partner": "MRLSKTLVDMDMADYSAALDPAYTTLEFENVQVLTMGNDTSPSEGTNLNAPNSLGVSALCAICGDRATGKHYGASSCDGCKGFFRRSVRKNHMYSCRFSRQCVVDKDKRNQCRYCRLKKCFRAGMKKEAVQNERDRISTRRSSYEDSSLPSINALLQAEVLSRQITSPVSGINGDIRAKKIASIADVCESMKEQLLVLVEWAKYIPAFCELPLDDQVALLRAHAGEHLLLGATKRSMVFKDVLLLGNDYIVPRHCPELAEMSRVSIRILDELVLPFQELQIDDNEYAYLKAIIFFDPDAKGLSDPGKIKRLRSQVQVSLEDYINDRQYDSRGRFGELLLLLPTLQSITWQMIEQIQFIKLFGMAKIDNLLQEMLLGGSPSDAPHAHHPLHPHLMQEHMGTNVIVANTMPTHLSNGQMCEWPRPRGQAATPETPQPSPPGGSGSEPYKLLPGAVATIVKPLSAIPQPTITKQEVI"}},
  "data": [
    {"variants_of": "B1", "settings": "with hnf4a_human HNF4A", "values": [
      {"variant": "L70A;L73A", "effect of a mutation on the interaction": "disrupting interaction"}
    ]}
  ]
}
